# Measurements as given in patent US6982249B1, “Bradykinin analogs as selective inhibitors of cell activation” (The Regents of the University of Michigan, priority 1997, dated 2006).
# Entries after “also recorded” stand apart in the source; their conditions may differ.
# Key:
# [1] = test system: fibroblasts (thrombin receptor, PAR 1); test: α-thrombin-induced calcium mobilization in fibroblasts; format: cell-based
# Protocol: (§1) A variation of the calcium mobilization assay uses fibroblasts (which express a single receptor for thrombin, PAR 1), umbilical vein endothelial cells, or other cells which express the cloned thrombin receptor, and which grow in monolayers on the bottom of plastic wells.
# (§2) Fibroblasts or endothelial cells were grown in 24-96 well plates and loaded with the fluorescent Ca^2+ indicator fura-2 acetyloxymethylester (5 μM, Molecular Probes Inc.) by incubation for 60 min. in HEPES-Tyrode's buffer at 37° C. After washing the cells, the fluorescence of the cells was monitored on a thermostatically controlled heated pad at 37° C. for 1 min, then the cells were incubated with α-thrombin (1 to 5 nM) in the absence or presence of a BK analog. Fluorescence was detected by a Perkin-Elmer LS-50B Luminescence Spectrofluorometer. Excitation was measured at 340 and 380 nm wavelength and emission was assessed at 510 nm. The cytosolic Ca^2+ levels were determined as described above. The Rmax value was determined using 10 mM Ca^2+ in the presence of 20 μM Ionophor A23187; Rmin was determined in the presence of 20 mM EDTA.
# (§3) The ability of BK analogs to inhibit α-thrombin-induced calcium mobilization in fibroblasts and human umbilical vein endothelial cells (HUVEC) was assayed as described in Example 1C.
# [2] = test system: human umbilical vein endothelial cells (HUVEC); test: α-thrombin-induced calcium mobilization in HUVEC; format: cell-based
# Protocol: as §1, §2, §3
# [3] = test system: α-thrombin binding to platelets; test: 125I-α-thrombin binding to platelets; settings: HK, LK, domain 3: molar excess
molecule,measurement,setting,value
"HK: human high molecular weight kininogen (protein, UniProt P01042 19-644, looked up, high molecular weight kininogen) Kininogen-1: QESQSEEIDCNDKDLFKAVDAALKKYNSQNQSNNQFVLYRITEATKTVGSDTFYSFKYEIKEGDCPVQSGKTWQDCEYKDAAKAATGECTATVGKRSSTKFSVATQTCQITPAEGPVVTAQYDCLGCVHPISTQSPDLEPILRHGIQYFNNNTQHSSLFMLNEVKRAQRQVVAGLNFRITYSIVQTNCSKENFLFLTPDCKSLWNGDTGECTDNAYIDIQLRIASFSQNCDIYPGKDFVQPPTKICVGCPRDIPTNSPELEETLTHTITKLNAENNATFYFKIDNVKKARVQVVAGKKYFIDFVARETTCSKESNEELTESCETKKLGQSLDCNAEVYVVPWEKKIYPTVNCQPLGMISLMKRPPGFSPFRSSRIGEIKEETTVSPPHTSMAPAQDEERDSGKEQGHTRRHDWGHEKQRKHNLGHGHKHERDQGHGHQRGHGLGHGHEQQHGLGHGHKFKLDDDLEHQGGHVLDHGHKHKHGHGHGKHKNKGKKNGKHNGWKTEHLASSSEDSTTPSAQTQEKTEGPTPIPSLAKPGVTVTFSDFQDSDLIATMMPPISPAPIQSDDDWIPDIQIDPNGLSFNPISDFPDTTSPKCPGRPWKSVSEINPTTQMKESYYFDLTDGLS",inhibition of α-thrombin-induced calcium mobilization in fibroblasts (FIG. 5),[1],inhibited calcium mobilization; also recorded: inhibition
same,inhibition of α-thrombin-induced calcium mobilization in endothelial cells (FIG. 6),[2],inhibited calcium mobilization; also recorded: inhibition
same,inhibition of 125-α-thrombin binding to platelets,[3],inhibit
